Tests used:
TcaR [1] = biological target: T1, TcaR (Staphylococcus epidermidis, UniProt Q5HLN6 1-151); assay: EMSA; no significant interaction; 1 uM DNA; EMSA: 20 mM Tris-HCl pH 8.0, 150 mM KCl, 0.1 mM MgCl2, 0.05 mM EDTA, 12.5% glycerol, 0.1 mM DTT, 1 mg/ml BSA, room temperature (30 C for viral ssDNA); SPR: 50 mM Tris, 150 mM NaCl, pH 7.5, 25 C; conditions: protein: recombinant, chain copies: 2
TcaR [2] = biological target: T1, TcaR; assay: SPR; shown as '-' in table; EMSA: 20 mM Tris-HCl pH 8.0, 150 mM KCl, 0.1 mM MgCl2, 0.05 mM EDTA, 12.5% glycerol, 0.1 mM DTT, 1 mg/ml BSA, room temperature (30 C for viral ssDNA); SPR: 50 mM Tris, 150 mM NaCl, pH 7.5, 25 C; conditions: protein: recombinant; chain copies: 2
TcaR [3] = biological target: T1, TcaR; assay: SPR; EMSA: 20 mM Tris-HCl pH 8.0, 150 mM KCl, 0.1 mM MgCl2, 0.05 mM EDTA, 12.5% glycerol, 0.1 mM DTT, 1 mg/ml BSA, room temperature (30 C for viral ssDNA); SPR: 50 mM Tris, 150 mM NaCl, pH 7.5, 25 C; conditions: protein: recombinant; chain copies: 2; label: 5' biotin (SPR)
TcaR [4] = biological target: T1, TcaR; assay: EMSA; EMSA: 20 mM Tris-HCl pH 8.0, 150 mM KCl, 0.1 mM MgCl2, 0.05 mM EDTA, 12.5% glycerol, 0.1 mM DTT, 1 mg/ml BSA, room temperature (30 C for viral ssDNA); SPR: 50 mM Tris, 150 mM NaCl, pH 7.5, 25 C; conditions: protein: recombinant, chain copies: 2
TcaR quadruple mutant = TcaR quadruple mutant (Staphylococcus epidermidis, UniProt Q5HLN6 1-151, R71A;K73A;R93A;K95A); assay: as above; conditions: protein: recombinant, chain copies: 2
TcaR [5] = biological target: T1, TcaR; assay: EMSA; weaker than the single strands; EMSA: 20 mM Tris-HCl pH 8.0, 150 mM KCl, 0.1 mM MgCl2, 0.05 mM EDTA, 12.5% glycerol, 0.1 mM DTT, 1 mg/ml BSA, room temperature (30 C for viral ssDNA); SPR: 50 mM Tris, 150 mM NaCl, pH 7.5, 25 C; conditions: protein: recombinant; chain copies: 2
TcaR [6] = biological target: T1, TcaR; assay: EMSA; similar to GC33; small and large complexes; EMSA: 20 mM Tris-HCl pH 8.0, 150 mM KCl, 0.1 mM MgCl2, 0.05 mM EDTA, 12.5% glycerol, 0.1 mM DTT, 1 mg/ml BSA, room temperature (30 C for viral ssDNA); SPR: 50 mM Tris, 150 mM NaCl, pH 7.5, 25 C; conditions: protein: recombinant; chain copies: 2
TcaR [7] = biological target: T1, TcaR; assay: EMSA; similar to GC33; small complex; EMSA: 20 mM Tris-HCl pH 8.0, 150 mM KCl, 0.1 mM MgCl2, 0.05 mM EDTA, 12.5% glycerol, 0.1 mM DTT, 1 mg/ml BSA, room temperature (30 C for viral ssDNA); SPR: 50 mM Tris, 150 mM NaCl, pH 7.5, 25 C; conditions: protein: recombinant; chain copies: 2

GAGCGTTGGCGTCGTGC (ssDNA) [GC17]: no binding (TcaR [1]; label: 5' biotin (SPR only)).

B1: Control dsDNA (dsDNA)
DNA 1: CCCCCGGGTTCGATGGGCTCAAGGCGGGCATGAAGTACCCCGTACTTCATGCCCGCCTTGAGCCCATCGAACCC
DNA 2: GGGTTCGATGGGCTCAAGGCGGGCATGAAGTACGGGGTACTTCATGCCCGCCTTGAGCCCATCGAACCCGGGGG
B1: no binding (TcaR [2]).

GTTGGCGT (ssDNA) [GC8]: no binding (TcaR [3]).

GATTATTTATTTTCAAG (ssDNA) [AT17]: no binding (TcaR [1]).

GAGCGTTGGCGTCGTGAGCGTTGGCGTCGTGCG (ssDNA) [GC33]: binds (TcaR [4]; label: 5' biotin (SPR only)); no binding (TcaR quadruple mutant; label: 5' biotin (SPR only)).

B2: IcaR DNA1 (dsDNA)
DNA 1: TATTGCAAATTGAAATACTTTCGATTAGCATAT
DNA 2: ATATGCTAATCGAAAGTATTTCAATTTGCAATA
B2: no binding (TcaR quadruple mutant); binds (TcaR [5]).

ATATGCTAATCGAAAGTATTTCAATTTGCAATA (ssDNA) [IcaR DNA1A]: binds (TcaR [4]).

TATTGCAAATTGAAATACTTTCGATTAGCATAT (ssDNA) [IcaR DNA1S]: binds (TcaR [4]).

GCGTTGGCGTCGTGAGCGTTGGCGTCGTG (ssDNA) [GC29]: binds (TcaR [6]).

GTTGGCGTCGTGAGCGTTGGCGTCG (ssDNA) [GC25]: binds (TcaR [7]).

GATTATTTATTTTCAAATTATTTATTTTCAAGG (ssDNA) [AT33]: binds (TcaR [4]; label: 5' biotin (SPR only)).

Source: PMC3448645, “Functional Studies of ssDNA Binding Ability of MarR Family Protein TcaR from Staphylococcus epidermidis”
